These results are taken from PMC10565793, “Biochemical and X-ray analyses of the players involved in the faRel2/aTfaRel2 toxin–antitoxin operon” (Acta Crystallographica. Section F, Structural Biology …, 2023).

The target of this assay is T1, FaRel2^Y128F (catalytically impaired toxin FaRel2 from Coprobacillus sp. D7) (Coprobacillus sp. D7, Y128F (stands in the printed letters)).
T1 construct: The His6-SUMO tag was removed with UlpI, and complete removal was confirmed by anti-His Western blot; also called tagless FaRel2^Y128F; His6-SUMO-FaRel2^Y128F (before cleavage); source: E. coli BL21(DE3), purified (Ni-NTA, SEC, UlpI cleavage, TALON, SEC); not shown: His6, N-terminal, cleaved; SUMO, N-terminal, cleaved
In words: SEC; analytical SEC on a Superdex 75 Increase column in 25 mM HEPES, 300 mM NaCl, 1 mM TCEP, 2 mM MgCl2; proteins run alone, or FaRel2^Y128F and ATfaRel2 mixed in a 1:1.2 molar ratio; molecular weights estimated from elution volume. The settings on record: both partners purified.

B1: 6×His-TEV-ATfaRel2 (antitoxin ATfaRel2 from Coprobacillus sp. D7) (natural protein)
chain: AMCYIIAKRFKKSGCVALKAKRGKELADFATDLQKKLGYDIQIVAITRPTAYGEYEPYKFVNSFEEFSIEASRL
notes: The tag is not reported as removed; also called His6-TEV-ATfaRel2; source: E. coli BL21 (DE3), purified (Ni-NTA, SEC)
For orientation: stoichiometry N means the number of molecules, sites or subunits per partner or assembly. For B1, the “stoichiometry N” value is 1 ATfaRel2 per FaRel2^Y128F (2:2 heterotetramer).
